Reference: the DeepSol protein solubility set

test: soluble on expression in E. coli; label from the status in PepcDB or PDB records

Sequence	soluble on expression in E. coli
MRAFSFRPFFLQALVVMPEYVNWLRHASPYINAHRDCTFVVMLPGDGVAHPNFGNIVHDLVLLHSLGVRLVLVHGSRPQIESRLAQRGITPRYHRDMRITDTETLECVIDAVGQLRISIEARLSMDMAASPMQGSRLRVTSGNVVTARPIGVLEGIDYQHTGEVRRVDRKGINRLLDERHIVLLSPLGYSPTGEIFNLACEDVATRAAIDLAADKLLLFGAETGLLDEQGRLVRELRPQQVPAHLQRLGGNYQAELLDAAAEACRGGVARSHIVSYAEDGALLTELFTRDGGGTLVAQEQFELVREAAIEDVGGLMDLITPLEEQGILVRRSREVLEREITQFSVVEREGLIIACAALYPIADSESGELACLAVNPEYRHGGRGDELLERIENRARALGIKTLFVLTTRTAHWFRERGFEPSSVDRLPSARASLYNFQRNSKIFEKAI	not soluble
MRDERLSKIISMFQAHIRGYLIRKAYKKLQDQRIGLSVIQRNIRKWLVLRNWQWWKLYSKVKPLL	soluble
MRDIGGSMSSASTSATIVKRSPPNDTSTSSGVSCDVSPNSMTSPSSGSDQNQNNNSLNKCKCCPYGYHIDLGFVSYAQNVSNGFVSRQGTPTNMTLRGNGADRHLMSPLLDNSIFSDSLDNLMSDFDDVLAPHKEVEKKKTVQDIRSRMQGGYNSDYTTYRRGPPEIPRRAHFEQAKPPPLSRPINLGFSGSRSNTPTQRFNAPNGTGNGYSTALAKTISEIRARNAESPFPDSRVGTPIDLGLHQQNNGHVTPSRFANNRYDDLPPTPTPTFRRAPSQGDLPRGFSTAPSTGPGDFASLRRGREFALPPEQEHHSRRFFSASPKLPRRGLQAGPSIDVESHFTYAQTQNGQKVLARTQSTSTSPPPQAPASAFEPVKPLSNGSPSPTHQVQKPIVTRSIAVSTGPLPAPKPCGECAGLRKELFLAVEKIPPPPPESCHVSTSTVLLEFADQSVGSEPIKHCHVALGTEPTSTREVGTVPVTVRSLHIDTQTDPAASTVDAACSPVLFETQEEAVKVTVAASSSAAAADCEECLKRQDVFTRNVGVGACSISDKICVSCDNQVVEADENEAPGFKTDTKDDQKQRDFEIAKANAVKKLLTNEQKSNFQRGTAVSKSARYDRKRSVDDLDYIVDKKNATSPATSSQEAPPTVPDASESPLTTKVVLKKEVFIEPPKQMLPDPIPARIPRPKISKWAVTSEEEAAETPDEQEEAQDRLTPLRSDMRQLGNRWNRNQVTTASNTTPHLPYSGATSQEDVSDSDAESDCSAHSDATFEVNDDVFDAAPFEVSDRLREALENFNSSILEPGSVAEETVEWSAKLVRHVWMTTAGNSSSRYENVDRFVAELGNLGPQILHMVVNFCDQNGNTALHYAVSHANFAVVSSILDSGECDLDAPNRAGYTAVMLAALSQLDDDMEKAVVHRLFQMGNVNAKASQHGQTALMLAVSHGKKTTTELLLACGANVNEQDQDGSTALMCAAEHGHKELVKMLLAENLVNASLTDVDNSTALSIALENDHREIGVMIYAYLNYGRLDISGPTSTI	not soluble
MRDRTCVVPGCGATRGLHAHHIRHWQDGGATELANLVLVCPYHHRAHHRGLITITLEHHHHHH	not soluble
MREELIEKIKKAGVVGAGGAGFPTHVKVNSKARTVLVNGAECEPLLRVDQQLMAGQASKVVMGLELVMSVTGAKEGIISLKHKYHDAISALEKEISGKPIRIHILDDFYPAGDEHVTVYESTGRLVPQGSIPLKVDCVVHNVETLLNTVDAVADQPVTDTYLTITGEVNQPLTLRLPIGTAISEALAMAGYHDSGGMQVIEGGPMMGKIVADLHQPITKTTKGLIVLPREHPLLRLKTLPADKVLRQSRVSCVQCRFCTDLCPRYLLGHQLEPHKIMRMVNYGQGQEETMKMAFACSECGVCEQYACIMGLSPRAVNALLKKELTRLGIKPSPSPADQAVDPLQPHRKIPVKRLISRLALQDYDRNAPLQERDYPIDRVAIKLCQHVGAPSVPTVKAGQKVKKGDPIASPPAKGLGSYLHASIDGVVQEITDSILISARKGSETQPWNPSV	not soluble
MRELVVIFGLSGSGKSFLASILHEKCGYEWLRSDVIRKQLAGLKPEESAKADYGKGIYTKEITKKVYEEMVKRAKELIDRGKKVVLDATFIKRWQRELVLKNFKDPFFILAFAPEEVIKERLKSRKDVSDADWNIYLKQKEEFEAPEEIDYCVINTNKSKEELESRLKKLLGCQLK	not soluble
MRERGVAFFSGGKDGLYALYLAEKEGIEVPYLLTLKTSIGLSPHWENLSSLKALAENMGKKLLTFDMKYGSKALAEFISSLDVDYIIAGDVFLEDHLKWINLLAEKAGIKSFEPLWGKNTLELAKEMLNAGFKYSIIAVDKNKLEKTWLGYTFSSTRDIEIFIYENPTIDPLGEGGEFHTITLSSPLFKDEFTLEKISVEESERYWWMRFRVVGNDIKNVRVKGHNSRKDGLEHHHHHH	soluble
MREVISIHVGQAGVQIGNACWELYCLEHGIQPDGTMPSDQQADGESFTTFFSDTGNGRYVPRSIFVDLEPTVVDEIRTGTYKKLFHPEQMITGKEDAANNYARGHYTVGKELIDTVLDRIRRLADNCSGLQGFFVFHSFGGGTGSGFTSLLMERLSVDYGKKSKLEFSIYPAPQVSTAVVEPYNSILTTHTTLEHSDCAFMVDNEAIYDICRRNLSVDRPSYTNLNRIISQVVSSITASLRFDGALNVDLNEFQTNLVPYPRIHFPLAAYTPLISADKAYHEALSVNDITNSCFEPANQMVKCDPRHGKYMAVCLLYRGDVVPKDVNTAIAAIKTKRTIQFVDWCPTGFKVGINYQPPTVVPGGDLAKVPRAVCMLSNTTAIAEAWSRLDYKFDLMYAKRAFVHWYVGEGMEEGEFTEAREDLAALEKDYEEVGADSNEGGNEEEGEEY	not soluble
MRFLSLLCPPVERAAVMRPPYTTHLQRVPLMRKSLLALSLLAATSAPVLAADYSDGDIHKNDYKWMQFNLMGAFDELPGKSSHDYLEMEFGGRSGIFDLYGYVDVFNLATNKSSDKVGDPKIFMKFAPRMSLDAFTGVDMSFGPVQEVYVASLFEWDGTDFKTNAFSVNNQKIGLGSDVMVPWFGKVGLNLYGTYDGNRKDWNGFQISTNWFKPFYFFENGSFISYQGYIDYQFGLKDEYSTASNGGAMFNGIYWHSDRFAVGYGLKGYKDVYGIKDTDGFKSTGFGHYVAVTYKF	not soluble
MRFSNDHPFNQMRLKLTTELLLDLGSLKPEHIITPRIATDEELSLIHSYDYIQAIRRASHGILNLQEAKKYGLDGDDTLQFRRMHQHSARIVGGALNLADAIMDKSVKNGCHLGGGLHHSLPGRANGFCIYNDVAITIAYLIKHYNQRVLCIDTDAHHGDGTQWSFYTEDQALIYSIHETGKFLFPGSGHYTERGNEQGFGYTVNIPLEPYTEDSSYLEVFKQTIEPIIASFKPDIIVSVHGVDVHYLDPLTHMSCTLNTLYQIPYIIKSLADTYTNGKVMMFGGGGYNIWKVVPRAWSHVFLALIEAPPPLEHHHHHH	soluble
MRGEVKKIIEAIGDIFIGHEDVIRKVLAVALVNGNILFEDYPGLGKTLLAKAFAKILGLKFKRIQFTPDLLPADIIGTKVWKPEKGAFEVVKGPIFTNILLADEINRAPPKTQSALLEAMEERQVTIEGETFKLERPFFIIATQNPLELEGTYPLPEAQLDRFLVRLNIGYPRNEEDELEILKARLRWGKDDPTSDISPIISREDFIRMQEEVERGVIIHDDILRYIVRLVRRIREDERIEAGPSPRGGLALMKLAKANAFIEGRSYVIPDDVKYFAVEALAHRIVLKPEYSLERGIAEEIIREVLEEVPVPKDIRY	soluble
MRGNLKLFELKSGRGEKLMKNILIISSSPRKKGNSQILCEQFKKGAEAKGHQVKIVRIMEQNIGFCRACDGCMRNGGTCVLKDDMAEILKMFQKADVLVLATPVYFYGISAQMKTFIDRTYPIWQHLGKKEVYYIISAGLGEDIIERSLGDLNGFVEHLEEYKISGKIYAANVMDAGLVKNQSVFQKAYDMGYAI	not soluble
MRGSHHHHHHGMASMTGGQQMGRDLYDDDDKDPMSVIKPDMKIKLRMEGAVNGHPFAIEGVGLGKPFEGKQSMDLKVKEGGPLPFAYDILTTVFCYGNRVFAKYPENIVDYFKQSFPEGYSWERSMNYEDGGICIATNDITLDGDCFIYEIRFDGVNFPANGPVMQKRTVKWEPSTEKLYVRDGVLKGDVNMALLLEGGGHYRCDFKTTYKAKKVVQLPDYHFVDHRIEIKSHDKDYNNVNLHEHAEAHSGLPRQAK	soluble
MRGSHHHHHHGSASFLKKTMPFKTTIEGTVNGHYFKCTGKGEGNPFEGTQEMKIEVIEGGPLPFAFHILSTSCMYGSKTFIKYVSGIPDYFKQSFPEGFTWERTTTYEDGGFLTAHQDTSLDGDCLVYKVKILGNNFPADGPVMQNKAGRWEPGTEIVYEVDGVLRGQSLMALKCPGGRHLTCHLHTTYRSKKPASALKMPGFHFEDHRIEIMEEVEKGKCYKQYEAAVGRYCDAAPSKLGHN	soluble
MRGSHHHHHHGSDLGRKLLEAARAGQDDEVRILMANGADVNAADNTGTTPLHLAAYSGHLEIVEVLLKHGADVDASDVFGYTPLHLAAYWGHLEIVEVLLKNGADVNAMDSDGMTPLHLAAKWGYLEIVEVLLKHGADVNAQDKFGKTAFDISIDNGNEDLAEILQKLN	soluble
MRGSHHHHHHGSNSLSEANTKFMFDLFQQFRKSKENNIFYSPISITSALGMVLLGAKDNTAQQIKKVLHFDQVTENTTGKAATYHVDRSGNVHHQFQKLLTEFNKSTDAYELKIANKLFGEKTYLFLQEYLDAIKKFYQTSVESVDFANAPEESRKKINSWVESQTNEKIKNLIPEGNIGSNTTLVLVNAIYFKGQWEKKFNKEDTKEEKFWPNKNTYKSIQMMRQYTSFHFASLEDVQAKVLEIPYKGKDLSMIVLLPNEIDGLQKLEEKLTAEKLMEWTSLQNMRETRVDLHLPRFKVEESYDLKDTLRTMGMVDIFNGDADLSGMTGSRGLVLSGVLHKAFVEVTEEGAEAAAATAVVGFGSSPTSTNEEFHCNHPFLFFIRQNKTNSILFYGRFSSP	soluble
MRGSHHHHHHGSPYNVMIVDDAAMMRLYIASFIKTLPDFKVVAQAANGQEALDKLAAQPNVDLILLDIEMPVMDGMEFLRHAKLKTRAKICMLSSVAVSGSPHAARARELGADGVVAKPSGTVSHDLEEKTGGELARTMRTLMAA	soluble
MRGSHHHHHHTDPALRADIIFYHPTFDTQWWIEALRKAIPQARVRAWKSGDNDSADYALVWHPPVEMLAGRDLKAVFALGAGVDSILSKLQAHPEMLNPSVPLFRLEDTGMGEQMQEYAVSQVLHWFRRFDDYRIQQNSSHWQPLPEYHREDFTIGILGAGVLGSKVAQSLQTWRFPLRCWSRTRKSWPGVQSFAGREELSAFLSQCRVLINLLPNTPETVGIINQQLLEKLPDGAYLLNLARGVHVVEDDLLAALDSGKVKGAMLDVFNREPLPPESPLWQHPRVTITPHVAAITRPAEAVEYISRTIAQLEKGERVCGQVDRARGYGLCGR	soluble
MRGSHHHHHHTDPALRASVRLVLAKGREKSLLRRHPWVFSGAVARMEGKASLGETIDIVDHQGKWLARGAYSPASQIRARVWTFDPSESIDIAFFSRRLQQAQKWRDWLAQKDGLDSYRLIAGESDGLPGITIDRFGNFLVLQLLSAGAEYQRAALISALQTLYPECSIYDRSDVAVRKKEGMELTQGPVTGELPPALLPIEEHGMKLLVDIQHGHKTGYYLDQRDSRLATRRYVENKRVLNCFSYTGGFAVSALMGGCSQVVSVDTSQEALDIARQNVELNKLDLSKAEFVRDDVFKLLRTYRDRGEKFDVIVMDPPKFVENKSQLMGACRGYKDINMLAIQLLNEGGILLTFSCSGLMTSDLFQKIIADAAIDAGRDVQFIEQFRQAADHPVIATYPEGLYLKGFACRVMGLCGR	soluble
MRGYLGKAQQNALINEAQSYPLTRPQIQVFGRYHAIPRQQVWYGDLGCDYLYSGLFIRALPWPKYLQKLRDKLQRDFELGSNGVLVNRYADGQDCMGAHSDDEPEIAHGSDIASISLGATRDFVIKHKHSKQKCCISLHSGDLLIMHWPMQRDWLHSVPKRLKVTEPRWNYTFRQLVVNYHGLEHHHHHH	not soluble
